Results published in patent US20050026841A1, “Hab18g/cd147 its antagonist and application” (priority 2001, published 2005).
Marks after values point to notes of the source that are not given here. Where no end group is shown, it is not given here.

T1: HAb18G/CD147 on HHCC hepatocellular carcinoma cells (human, UniProt P35613 140-385, glycosylated (mode not specified))
T1 sequence: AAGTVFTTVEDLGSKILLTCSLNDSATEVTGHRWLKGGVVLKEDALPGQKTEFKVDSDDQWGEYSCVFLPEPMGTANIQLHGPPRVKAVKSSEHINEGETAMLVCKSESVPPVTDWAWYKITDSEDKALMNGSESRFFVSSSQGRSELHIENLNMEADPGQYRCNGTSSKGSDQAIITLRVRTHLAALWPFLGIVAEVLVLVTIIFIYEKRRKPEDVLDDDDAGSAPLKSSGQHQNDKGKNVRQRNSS

B1: HAb18G/CD147 binding/antagonistic peptide (9) (peptide)
peptide: YKLPGHHHHYRP
B2: HAb18G/CD147 binding/antagonistic peptide (4) (peptide)
peptide: KYPHQHLHMHDS
B3: HAb18G/CD147 binding/antagonistic peptide (6) (peptide)
peptide: YPFHHKHWHRPN
B4: HAb18G/CD147: hepatocellular carcinoma-associated antigen of 269 amino acids, purified from HHCC cells by HAb18 affinity chromatography (protein, listed as Homo sapiens)
chain: MAAALFVLLGFALLGTHGASGAAGTVFTTVEDLGSKILLTCSLNDSATEVTGHRWLKGGVVLKEDALPGQKTEFKVDSDDQWGEYSCVFLPEPMGTANIQLHGPPRVKAVKSSEHINEGETAMLVCKSESVPPVTDWAWYKITDSEDKALMNGSESRFFVSSSQGRSELHIENLNMEADPGQYRCNGTSSKGSDQAIITLRVRTHLAALWPFLGIVAEVLVLVTIIFIYEKRRKPEDVLDDDDAGSAPLKSSGQHQNDKGKNVRQRNSS
B5: HAb18G/CD147 binding/antagonistic peptide (5) (peptide)
peptide: IGWHYYLRTQHS
B6: HAb18G/CD147 binding/antagonistic peptide (1) (peptide)
peptide: MTHDPVISLPTT
B7: HAb18G/CD147 binding/antagonistic peptide (3) (peptide)
peptide: GHWHNHRHQAPL
B8: HAb18G/CD147 binding/antagonistic peptide (2) (peptide)
peptide: LHRHSHGHSYKS
B9: HAb18G/CD147 binding/antagonistic peptide (7) (peptide)
peptide: ANIVPIHANHFQ
B10: HAb18G/CD147 binding/antagonistic peptide (8) (peptide)
peptide: MHKHPHGSQGPT

Columns and labels:
HHCCs = assay: reconstituted basement membrane invasion assay with antagonistic peptides; format: cell-based, human; conditions: for inhibitory rate (%): invasion of HHCCs through reconstituted basement membrane, 20 hours, vs control; for inhibition of hepatocellular carcinoma cells invasion and metastasis (in words): reconstituted basement membrane invasion
Protocol: Matrigel (main component was type IV collagen, BD Company) was added onto the inner surface of Boyden Chambers (Millipore) to form the reconstituted basement membrane. Cells (HHCC cells and human fibroblasts) and antisense RNA were added and the chambers were put in the 24-well plates and co-cultured overnight. Cells infiltrated through the reconstituted basement membrane and appeared on the outer surfaces of the membrane were stained and counted under high-power microscope.
1. in vitro studies: reconstituted basement membrane invasion was employed to test the effects of the antagonistic peptides for HAb18G/CD147 on the invasive ability of HHCCs. Antagonistic peptides were co-cultured with HHCCs and fibroblasts on the reconstituted basement membrane for 20 hours. Cells infiltrated through the reconstituted basement membrane were counted under high-power microscope and the inhibitory rate of the antagonistic peptides was calculated.

HHCC cells = assay: tumorigenesis of HHCC cells inoculated in mice; format: in vivo; conditions: i.v. 2.5 mg/kg; for inhibitory effect on tumorigenesis of hepatocellular carcinoma cells: 200 μl HHCC cells (1×10^6/ml)
Protocol: 2. in vivo studies: The mice were inoculated with 200 μl HHCC cells (1×10^6/ml) and were then treated with HAb18G/CD147 antagonistic peptides (i.v.) at the dose of 2.5 mg/kg weight. […] Moreover, the average survival time of mice in therapeutic group was two times as long as that of the control group. A high metastatic human hepatocellular carcinoma cell line MHCC97-H was transplanted into the liver of nude mice to investigate the anti-metastasis effects of APs. […] The inhibitory effects of HAb18G/CD147 antagonistic peptides on angiogenesis in chick embryo chorioallantoic membrane (CAM) as well as on angiogenesis induced by Matrigel plug were detected.

[1] = target: T1, HAb18G/CD147 on HHCC hepatocellular …; assay: cell-based or functional assay
human fibroblasts = assay: gelatin zymography of human fibroblasts stimulated by purified HAb18G/CD147; format: cell-based; conditions: MMP-9, MMP-2 and MT1-MMP
Protocol: The experiments were carried out as follows:
Purified HAb18G/CD147 was added to the cultured human fibroblasts and the supernatant of the culture was collected and then subjected to SDS-PAG electrophoresis in a separation gel containing 1 mg/ml gelatin. Different from the conventional SDS-PAGE, no DTT was added to the sample and furthermore, the sample was not boiled. After electrophoresis, the gel was washed twice (45 min/each time) at room temperature and washed twice (20 min/each time) with 0.1 mol/L NaCl, and then incubated for 24 hours in an incubation solution at 37° C. The gel was stained with 0.5% (w/v) Coomassie Blue and then destained. MMPs were detected as clear bands against a blue background.

Row | Molecule | inhibitory rate (%) (HHCCs) | inhibition of hepatocellular carcinoma cells invasion and metastasis (in words) (HHCCs) | infiltrative cells [1] [cells] | inhibitory rate (%) [1] [%] | other results
1 | YPFHHKHWHRPN [AP-6, antagonistic 12-mer peptide for HAb18G/CD147] | 62.38^a % | significantly inhibited |  |  | inhibitory effect on tumorigenesis of hepatocellular carcinoma cells (HHCC cells): significant inhibitory effects; tumor formation on the 11th day from inoculation (HHCC cells; HHCC cells, tumors formed in all control mice): no tumor formed
2 | MHKHPHGSQGPT [AP-8, antagonistic 12-mer peptide for HAb18G/CD147] | 68.32^a % | significantly inhibited |  |  | 
3 | ANIVPIHANHFQ [AP-7, antagonistic 12-mer peptide for HAb18G/CD147] | 56.44^a % | significantly inhibited |  |  | 
4 | YKLPGHHHHYRP [AP-9, antagonistic 12-mer peptide for HAb18G/CD147] | 81.19^a % | significantly inhibited |  |  | 
5 | GHWHNHRHQAPL [AP-3, antagonistic 12-mer peptide for HAb18G/CD147] |  | significantly inhibited |  |  | 
6 | MTHDPVISLPTT [AP-1, antagonistic 12-mer peptide for HAb18G/CD147] | 78.2^a % | significantly inhibited |  |  | inhibitory effect on tumorigenesis of hepatocellular carcinoma cells (HHCC cells): significant inhibitory effects
7 | B1 |  |  | 3.8 | 81.2 | 
8 | B2 |  |  | 12.2 | 39.6 | 
9 | B3 |  |  | 7.6 | 62.4 | 
10 | B4 |  |  |  |  | MMPs secreted by human fibroblasts after stimulation (human fibroblasts): secreted three different MMPs
11 | B5 |  |  | 23.2 | -14.8 | 
12 | B6 |  |  | 4.4 | 78.2 | 
13 | B7 |  |  | 2 | 90.1 | 
14 | B8 |  |  | 28 | -38.6 | 
15 | B9 |  |  | 8.8 | 56.4 | 
16 | B10 |  |  | 6.4 | 68.3 | 
